Data: patent US20250368754A1 (KANAPH THERAPEUTICS, published 2025)

Columns and labels:
human LTβR on A375 cells [1] = target: T1, human LTβR on A375 cells (human, UniProt P36941 31-435); assay: cell-based or functional assay
[2] = target: T2, recombinant human herpes virus entry mediator (HVEM) (human, UniProt Q92956 39-202); assay: sandwich ELISA: plate coated with recombinant human HVEM 1 ug/mL, fusion protein from 1 nM in serial dilution, detected with biotinylated recombinant human FAP and streptavidin conjugate, OD 450 nm
T2 construct: neither construct is described; also called human HVEM; recombinant human HVEM protein (R&D systems)
T2 sequence (looked up): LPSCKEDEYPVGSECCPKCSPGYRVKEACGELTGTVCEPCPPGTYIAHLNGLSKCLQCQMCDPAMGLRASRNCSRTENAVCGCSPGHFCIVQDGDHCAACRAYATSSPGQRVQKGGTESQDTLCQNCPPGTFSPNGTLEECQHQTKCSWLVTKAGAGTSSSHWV
Description: Considering that LIGHT of the fusion protein must bind to the herpes virus entry mediator (HVEM) for the action, it was confirmed that T3.01 binds to the recombinant human HVEM, as follows: [0370] (i) The recombinant human HVEM protein (R&D systems) was suspended at 1 μg/mL, dispensed in a 96-well immune plate, and treated for 24 hours. [0371] (ii) The wells were washed with a wash solution, and then blocking was performed for 1 hour with 1% BSA (bovine serum albumin, Sigma) solution. [0372] (iii) The wells were washed with a wash solution, and then T3.01, T3.14, T3.16, T3.17, T3.18 and T3.10, or T3.05, T3.06, T3.04, T3.14 and T3.10 were suspended at 1 nM and diluted by serial dilution. The wells were treated with the diluted T3.01, T3.14, T3.16, T3.17, T3.18 and T3.10, or T3.05, T3.06, T3.04, T3.14 and T3.10 for 2 hours. [0373] (iv) The wells were washed with a wash solution, and then treated with the human recombinant FAP-biotin diluted at 0.5 μg/mL for 2 hours. [0374] (v) The wells were washed with a wash solution, and then treated with streptavidin-RP for 20 minutes. [0375] (vi) The wells were washed with a wash solution, and then treated with a substrate solution for 20 minutes. [0376] (vii) The wells were treated with a stop solution, and the absorbance was measured at 450 nm.

human LTβR on A375 cells [3] = target: T1, human LTβR on A375 cells; assay: flow cytometry on A375 cells, serial dilution from 500 nM, anti-human IgG detection
Description: (§1) Specifically, the A375 cell line was prepared by suspending in a FACS buffer solution at 1×10⁵ cells/100 μL, and treated with 100 μL each of T3.01, T3.07, T3.04, and T3.18 prepared by suspending at 500 nM and diluting by serial dilution. The cells were washed twice with a FACS buffer solution. The cells were stained with an anti-human IgG antibody (Biolegend). The expression ratio of the stained cells was measured using BD LSR and analyzed using FlowJo software.

human LTβR on A375 cells [4] = target: T1, human LTβR on A375 cells; assay: flow cytometry on A375 cells, serial dilutions, anti-human IgG detection, MFI against TMEkine [nM]
Description: as §1

human DcR3 = target: T3, human DcR3 (human, UniProt O95407 30-300); assay: SPR, human DcR3 immobilised on CM5, fusion protein as analyte, 1:1 binding model
T3 construct: also called LIGHT receptor DcR3
T3 sequence (looked up): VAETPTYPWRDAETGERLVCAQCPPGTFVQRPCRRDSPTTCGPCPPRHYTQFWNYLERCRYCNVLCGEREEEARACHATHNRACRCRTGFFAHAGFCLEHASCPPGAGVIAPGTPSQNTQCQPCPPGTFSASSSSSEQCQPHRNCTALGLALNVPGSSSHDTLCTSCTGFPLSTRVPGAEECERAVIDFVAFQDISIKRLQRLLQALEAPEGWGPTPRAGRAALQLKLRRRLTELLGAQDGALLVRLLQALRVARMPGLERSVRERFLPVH
Description: (§2) Specifically, the surface of the CM5 chip was activated with a 1:1 mixture of […], and 5 to 6 μg/mL of human DcR3 was immobilized for 60 seconds at a rate of 10 μL/min. The remaining active ester groups were blocked with 1 M ethanolamine. T3.01, T3.07, T3.09, T3.14, and T3.18 were each diluted to 50 nM or 200 nM in 1×HBS-EP+buffer solution and diluted by serial dilution. The diluted fusion proteins were reacted at a rate of 30 μL/min. The association and dissociation times were 180 seconds and 400 seconds, respectively. After the dissociation step, stabilization was performed for 60 seconds, and then the regeneration step was performed for 30 seconds with a 10 mM glycine pH 1.5 solution at a rate of 30 μL/min.

[5] = target: T4, recombinant human lymphotoxin beta receptor (LTβR) (human, UniProt P36941 28-227, limits assumed); assay: SPR, human LTβR immobilised on CM5, fusion protein as analyte, 1:1 binding model
T4 construct: neither construct is described; also called human LTβR; recombinant human LTβR protein
T4 sequence (P36941 28-227 limits assumed): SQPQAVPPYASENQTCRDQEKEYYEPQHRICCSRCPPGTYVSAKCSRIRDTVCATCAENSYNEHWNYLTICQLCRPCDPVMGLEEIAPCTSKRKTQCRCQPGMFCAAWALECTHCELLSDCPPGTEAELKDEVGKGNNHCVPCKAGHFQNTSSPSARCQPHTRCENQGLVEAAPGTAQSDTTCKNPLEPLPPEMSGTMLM
Description: as §2, with “5” for “5 to 6”, “LTβR” for “DcR3”, “T3.01, T3.07, T3.09, T3.14, and T3.18 were each diluted to 50 nM or 200 nM in 1×HBS-EP+buffer solution and diluted by serial dilution.” left out

[6] = target: T2, recombinant human herpes virus entry …; assay: SPR, human HVEM immobilised on CM5, fusion protein as analyte, 1:1 binding model
Description: as §2, with “HVEM” for “DcR3”, “100” for “50 nM or 200”

recombinant human FAP = target: T5, recombinant human FAP (human, UniProt Q12884 26-760); assay: SPR, fusion protein captured by anti-human IgG (Fc) on CM5, recombinant human FAP as analyte, 1:1 binding model
T5 construct: also called rhFAP
T5 sequence (looked up): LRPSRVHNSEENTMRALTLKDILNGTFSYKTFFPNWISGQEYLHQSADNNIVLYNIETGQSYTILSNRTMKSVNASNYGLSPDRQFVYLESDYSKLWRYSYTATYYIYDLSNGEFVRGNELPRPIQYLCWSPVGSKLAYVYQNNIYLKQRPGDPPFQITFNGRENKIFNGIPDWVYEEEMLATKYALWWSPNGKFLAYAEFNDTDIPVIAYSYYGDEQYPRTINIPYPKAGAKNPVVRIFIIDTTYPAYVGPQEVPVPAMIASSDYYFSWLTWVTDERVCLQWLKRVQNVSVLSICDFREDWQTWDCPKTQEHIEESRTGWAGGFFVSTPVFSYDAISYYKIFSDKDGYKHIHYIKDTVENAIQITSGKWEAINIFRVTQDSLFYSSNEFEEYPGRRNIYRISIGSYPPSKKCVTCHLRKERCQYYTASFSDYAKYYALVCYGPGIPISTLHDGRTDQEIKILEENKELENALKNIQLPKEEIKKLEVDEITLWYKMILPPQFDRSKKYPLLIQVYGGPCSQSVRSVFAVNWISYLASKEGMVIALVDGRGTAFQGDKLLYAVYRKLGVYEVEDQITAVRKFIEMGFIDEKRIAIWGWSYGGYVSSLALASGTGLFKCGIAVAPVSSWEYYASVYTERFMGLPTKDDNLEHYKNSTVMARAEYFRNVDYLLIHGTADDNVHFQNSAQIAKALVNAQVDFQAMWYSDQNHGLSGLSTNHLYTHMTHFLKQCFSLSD
Description: Specifically, the surface of the CM5 chip was activated with a 1:1 mixture of […] NHS (N-hydroxysuccinimide) and 200 nM EDC (1-ethyl-3-(3-dimethylaminopropyl)carbodiimide), and 20 μg/mL of anti-human IgG (Fc) antibody was immobilized for 400 seconds at a rate of 10 μL/min. The remaining active ester groups were blocked with 1 M ethanolamine. T3.01, T3.07, and T3.14 were diluted to 2 μg/mL, 1 μg/mL, and 2 μg/mL, respectively, and reacted on the CM5 chip immobilized with the anti-human IgG (Fc) antibody. The recombinant human FAP was diluted to 50 nM or 100 nM in 1×HBS-EP+buffer solution and diluted by serial dilution. The diluted recombinant human FAP was reacted at a rate of 30 μL/min. The association and dissociation times were 180 seconds and 400 seconds, respectively. After the dissociation step, stabilization was performed for 60 seconds, and then the regeneration step was performed for 30 seconds with a 10 mM glycine pH 1.5 solution at a rate of 30 μL/min.

T1 sequence (P36941 31-435): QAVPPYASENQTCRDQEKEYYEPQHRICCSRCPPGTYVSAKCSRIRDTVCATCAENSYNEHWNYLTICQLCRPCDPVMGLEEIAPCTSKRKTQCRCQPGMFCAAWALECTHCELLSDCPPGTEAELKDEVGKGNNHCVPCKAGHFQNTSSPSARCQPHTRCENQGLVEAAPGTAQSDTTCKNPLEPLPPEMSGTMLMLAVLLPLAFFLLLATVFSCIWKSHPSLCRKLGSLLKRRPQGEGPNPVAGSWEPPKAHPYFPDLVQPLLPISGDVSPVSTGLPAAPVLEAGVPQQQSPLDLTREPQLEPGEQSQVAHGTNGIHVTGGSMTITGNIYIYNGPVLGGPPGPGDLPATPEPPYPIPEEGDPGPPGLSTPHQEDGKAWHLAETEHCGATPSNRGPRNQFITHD

B1: T3.04 (anti-hu FAP/hu scLIGHT3(GGGGS4), hu IgG1 DANG) (bispecific antibody)
heavy: QVQLVQSGAEVKKPGASVKVSCKTSRYTFTEYTIHWVRQAPGQRLEWIGGINPNNGIPNYNQKFKGRVTITVDTSASTAYMELSSLRSEDTAVYYCARRRIAYGYDEGHAMDYWGQGTLVTVSSASTKGPSVFPLAPSSKSTSGGTAALGCLVKDYFPEPVTVSWNSGALTSGVHTFPAVLQSSGLYSLSSVVTVPSSSLGTQTYICNVNHKPSNTKVDKKVEPKSCDKTHTCPPCPAPELLGGPSVFLFPPKPKDTLMISRTPEVTCVVVAVSHEDPEVKFNWYVDGVEVHNAKTKPREEQYGSTYRVVSVLTVLHQDWLNGKEYKCKVSNKALPAPIEKTISKAKGQPREPQVYTLPPSRDELTKNQVSLWCLVKGFYPSDIAVEWESNGQPENNYKTTPPVLDSDGSFFLYSKLTVDKSRWQQGNVFSCSVMHEALHNHYTQKSLSLSPGK
light: not shown
chain: not shown
notes: Knob-into-hole; LIGHT homotrimer with (GGGGS)4 linkers
**Q.** Which results are given for B1?
**A.** IL-8 secretion of A375 cells, EC50 (FIG. 15a) (human LTβR on A375 cells [1]): 0.0604 nM; binding result [2]: binds; percent of cells bound (human LTβR on A375 cells [3]): ≥ 96%; EC50 (read off the curve) (human LTβR on A375 cells [4]): ~4 nM

B2: T3.07 (anti-hu FAP-hu scLIGHT2/anti-hu FAP-hu LIGHT, hu IgG1 DANG (2 + 1)) (bispecific antibody)
heavy 1: QVQLVQSGAEVKKPGASVKVSCKTSRYTFTEYTIHWVRQAPGQRLEWIGGINPNNGIPNYNQKFKGRVTITVDTSASTAYMELSSLRSEDTAVYYCARRRIAYGYDEGHAMDYWGQGTLVTVSSASTKGPSVFPLAPSSKSTSGGTAALGCLVKDYFPEPVTVSWNSGALTSGVHTFPAVLQSSGLYSLSSVVTVPSSSLGTQTYICNVNHKPSNTKVDKKVEPKSCDKTHTCPPCPAPELLGGPSVFLFPPKPKDTLMISRTPEVTCVVVAVSHEDPEVKFNWYVDGVEVHNAKTKPREEQYGSTYRVVSVLTVLHQDWLNGKEYKCKVSNKALPAPIEKTISKAKGQPREPQVYTLPPSRDELTKNQVSLWCLVKGFYPSDIAVEWESNGQPENNYKTTPPVLDSDGSFFLYSKLTVDKSRWQQGNVFSCSVMHEALHNHYTQKSLSLSPGKGGGGSGGGGSEVNPAAHLTGANSSLTGSGGPLLWETQLGLAFLRGLSYHDGALVVTKAGYYYIYSKVQLGGVGCPLGLASTITHGLYKRTPRYPEELELLVSQQSPCGRATSSSRVWWDSSFLGGVVHLEAGEKVVVRVLDERLVRLRDGTRSYFGAFMVGGSGEVNPAAHLTGANSSLTGSGGPLLWETQLGLAFLRGLSYHDGALVVTKAGYYYIYSKVQLGGVGCPLGLASTITHGLYKRTPRYPEELELLVSQQSPCGRATSSSRVWWDSSFLGGVVHLEAGEKVVVRVLDERLVRLRDGTRSYFGAFMV
heavy 2: not shown
light: not shown
notes: Knob-into-hole; two anti-FAP arms, LIGHT dimer and LIGHT monomer at the C-termini of the two heavy chains; two copies of the light chain follow from the (2 + 1) format
**Q.** What does the source list for B2?
**A.** IL-8 secretion of A375 cells, EC50 (FIG. 15b) (human LTβR on A375 cells [1]): 0.0477 nM; Kd (human DcR3): 0.598 nM; koff (human DcR3): 0.000195 s⁻¹; kon (human DcR3): 327000 M⁻¹ s⁻¹; Kd [5]: 0.935 nM; koff [5]: 0.000382 s⁻¹; kon [5]: 409000 M⁻¹ s⁻¹; percent of cells bound (human LTβR on A375 cells [3]): ≥ 96%; Kd [6]: 3.99 nM; koff [6]: 0.00114 s⁻¹; kon [6]: 285000 M⁻¹ s⁻¹; Kd (recombinant human FAP): 0.303 nM; koff (recombinant human FAP): 0.000118 s⁻¹; kon (recombinant human FAP): 391000 M⁻¹ s⁻¹
